Experimental data taken from patent US20210253724A1 (Hoffmann-La Roche, published 2021).
One block for each binder: values may come before it.

Assays:
[1] = target: T1, hu4-1BB-SNAP Tb-labeled expressed on transfected Hek cells (human, UniProt Q07011 24-255, Tb (terbium) label on the SNAP tag); assay: TR-FRET (TagLite) competition against d2-labeled 20H4.9 IgG1 (0.6 nM), after 4 h
T1 construct: SNAP-tag fusion of human 4-1BB; also called Tb hu4-1BB-SNAP

[2] = target: T2, human 4-1BB (CD137) on Jurkat-hu4-1BB-NFκB-luc2 reporter cells (human, UniProt Q07011 24-255); assay: cell-based or functional assay
[3] = target: T3, human FAP on NIH/3T3-huFAP clone 19 cells (human, UniProt Q12884 1-760); assay: flow cytometry on NIH/3T3-huFAP clone 19 cells
T3 construct: NIH/3T3 cells transfected with a plasmid encoding human FAP
Method: (§1) Plates were incubated for 30 minutes at 4° C. and washed once with 200 μL 4° C. cold DPBS buffer. […] Cells were washed twice with 200 μL 4° C. DPBS buffer and then resuspended in 50 μL/well DPBS containing 1% Formaldehyde for fixation. The same or the next day cells were resuspended in 100 μL FACS-buffer and acquired using MACSQuant Analyzer 10 (Miltenyi Biotec).

[4] = target: T3, human FAP on NIH/3T3-huFAP clone 19 …; assay: flow cytometry on NIH/3T3-huFAP clone 19 cells; remark: listed apart in the source
Method: as §1

[5] = target: T2, human 4-1BB (CD137) on …; assay: cell-based or functional assay; design: AUC of NFκB-luciferase activation curve, no FAP+ cells / AUC of NFκB-luciferase activation curve, with WM-266-4 cells: unit not given beside the values
[6] = target: T2, human 4-1BB (CD137) on …; assay: flow cytometry on Jurkat-hu4-1BB-NFκB-luc2 cells
Method: Plates were incubated for 30 minutes at 4° C. and washed once with 200 μL 4° C. cold DPBS buffer. […] Cells were washed twice with 200 μL 4° C. DPBS buffer and then resuspended in 50 μL/well DPBS containing 1% Formaldehyde for fixation. The same or the next day cells were resuspended in 100 μL FACS-buffer and acquired using MACSQuant Analyzer X (Miltenyi Biotec).

[7] = target: T2, human 4-1BB (CD137) on …; assay: cell-based or functional assay; remark: listed apart in the source
human 4-1BB Fc(kih) = target: T4, human 4-1BB Fc(kih) (human, UniProt P01857 104-328 = IgG part); assay: SPR (Biacore T200), human 4-1BB-Fc(kih) amine-coupled on a CM5 chip, antibody 150 nM as analyte 1
T4 construct: Monomeric Fc-linked antigen: 4-1BB ectodomain, AcTEV site, Fc knob and Avi tag, paired with an Fc hole chain; also called hu4-1BB-Fc(kih); human 4-1BB antigen Fc knob chain with Fc hole chain
Method: All SPR experiments were performed on a Biacore T200 at 25° C. with HBS-EP as running buffer (0.01 M HEPES pH 7.4, 0.15 M NaCl, 3 mM EDTA, 0.005% Surfactant P20, Biacore, Freiburg/Germany). […] Immobilization level of approx. 900 RU was used.
The dissociation was monitored for 240 sec. Bulk refractive index differences were corrected for by subtracting the response obtained in a reference flow cell, where no protein was immobilized.

[8] = target: T2, human 4-1BB (CD137) on …; assay: cell-based or functional assay; remark: listed apart in the source
[9] = target: T2, human 4-1BB (CD137) on …; assay: cell-based or functional assay; design: AUC of NFκB-luciferase activation curve, no CEA+ cells / AUC of NFκB-luciferase activation curve, with CHO-k1-cynoCEACAM5 clone 8: unit not given beside the values
[10] = target: T5, cynomolgus monkey CEACAM5 on CHO-k1-cynoCEACAM5 clone 8 cells (cynomolgus monkey); assay: flow cytometry on CHO-k1-cynoCEACAM5 clone 8; design: unit not given beside the values
T5 construct: whole, on cells

T4 sequence (P01857 other isoform, or with tags, fused parts or gaps limits assumed): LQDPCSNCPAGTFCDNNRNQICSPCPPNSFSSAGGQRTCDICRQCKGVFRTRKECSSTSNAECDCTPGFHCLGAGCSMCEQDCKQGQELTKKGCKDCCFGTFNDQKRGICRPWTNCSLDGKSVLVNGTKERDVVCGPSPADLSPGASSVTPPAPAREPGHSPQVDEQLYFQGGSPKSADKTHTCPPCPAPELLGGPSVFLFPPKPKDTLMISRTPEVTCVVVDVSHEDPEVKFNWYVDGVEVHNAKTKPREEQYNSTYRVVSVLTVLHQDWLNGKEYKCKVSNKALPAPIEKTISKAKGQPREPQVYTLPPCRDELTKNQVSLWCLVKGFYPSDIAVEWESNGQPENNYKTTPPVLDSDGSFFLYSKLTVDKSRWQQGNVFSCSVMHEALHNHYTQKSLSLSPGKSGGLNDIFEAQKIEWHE

IC50 [1]: 2500 pM | EC50 of NFκB-luciferase activation curve, with NIH/3T3-huFAP clone 19 cells [2]: 8 pM | EC50 of NFκB-luciferase activation curve, with WM-266-4 cells [2]: 28 pM | EC50 [3]: 3940 pM | AUC [4]: 21200 | AUC of NFκB-luciferase activation curve, no FAP+ cells [5]: 4360 | AUC of NFκB-luciferase activation curve, with NIH/3T3-huFAP clone 19 cells [5]: 95100 | AUC of NFκB-luciferase activation curve, with WM-266-4 cells [5]: 30900
B1: 4-1BB (20H4.9)/FAP (4B9) P329GLALA IgG1 2+1 VH/VL (C-terminal) (bispecific antibody)
heavy 1: QVQLQQWGAGLLKPSETLSLTCAVYGGSFSGYYWSWIRQSPEKGLEWIGEINHGGYVTYNPSLESRVTISVDTSKNQFSLKLSSVTAADTAVYYCARDYGPGNYDWYFDLWGRGTLVTVSSASTKGPSVFPLAPSSKSTSGGTAALGCLVKDYFPEPVTVSWNSGALTSGVHTFPAVLQSSGLYSLSSVVTVPSSSLGTQTYICNVNHKPSNTKVDKKVEPKSCDKTHTCPPCPAPEAAGGPSVFLFPPKPKDTLMISRTPEVTCVVVDVSHEDPEVKFNWYVDGVEVHNAKTKPREEQYNSTYRVVSVLTVLHQDWLNGKEYKCKVSNKALGAPIEKTISKAKGQPREPQVCTLPPSRDELTKNQVSLSCAVKGFYPSDIAVEWESNGQPENNYKTTPPVLDSDGSFFLVSKLTVDKSRWQQGNVFSCSVMHEALHNHYTQKSLSLSPGGGGGSGGGGSGGGGSGGGGSEVQLLESGGGLVQPGGSLRLSCAASGFTFSSYAMSWVRQAPGKGLEWVSAIIGSGASTYYADSVKGRFTISRDNSKNTLYLQMNSLRAEDTAVYYCAKGWFGGFNYWGQGTLVTVSS
heavy 2: not shown
light: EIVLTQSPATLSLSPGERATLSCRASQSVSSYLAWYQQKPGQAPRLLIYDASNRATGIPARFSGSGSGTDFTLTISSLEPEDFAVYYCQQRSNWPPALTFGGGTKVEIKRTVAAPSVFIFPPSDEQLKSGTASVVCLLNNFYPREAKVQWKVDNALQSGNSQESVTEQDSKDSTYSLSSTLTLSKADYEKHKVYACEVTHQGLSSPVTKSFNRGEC
notes: Control format: FAP VH and VL fused to the C-termini of the heavy chains; also called 2+1 VH/VL anti-4-1BB (20H4.9)×anti-FAP (4B9) huIgG1 P329GLALA; 2+1 (C-terminal)

AUC of NFκB-luciferase activation curve, no FAP+ cells [5]: 181 | AUC of NFκB-luciferase activation curve, with NIH/3T3-huFAP clone 19 cells [5]: 195 | AUC of NFκB-luciferase activation curve, with WM-266-4 cells [5]: 191
B2: Anti-FAP (4B9) huIgG1 P329GLALA (antibody, V domains shown)
VH: EVQLLESGGGLVQPGGSLRLSCAASGFTFSSYAMSWVRQAPGKGLEWVSAIIGSGASTYYADSVKGRFTISRDNSKNTLYLQMNSLRAEDTAVYYCAKGWFGGFNYWGQGTLVTVSS
VL: EIVLTQSPGTLSLSPGERATLSCRASQSVTSSYLAWYQQKPGQAPRLLINVGSRRATGIPDRFSGSGSGTDFTLTISRLEPEDFAVYYCQQGIMLPPTFGQGTKVEIK

IC50 [1]: 1900 pM | EC50 of NFκB-luciferase activation curve, with NIH/3T3-huFAP clone 19 cells [2]: 20 pM | EC50 of NFκB-luciferase activation curve, with WM-266-4 cells [2]: 60 pM | EC50 [3]: 1810 pM | AUC [4]: 40200 | EC50 [6]: 62 pM | AUC of NFκB-luciferase activation curve, no FAP+ cells [5]: 715 | AUC of NFκB-luciferase activation curve, with NIH/3T3-huFAP clone 19 cells [5]: 109000 | AUC of NFκB-luciferase activation curve, with WM-266-4 cells [5]: 49400
B3: 2+1 H2H 4-1BB (20H4.9)/FAP (4B9) P329GLALA IgG1 (bispecific antibody)
heavy 1: QVQLQQWGAGLLKPSETLSLTCAVYGGSFSGYYWSWIRQSPEKGLEWIGEINHGGYVTYNPSLESRVTISVDTSKNQFSLKLSSVTAADTAVYYCARDYGPGNYDWYFDLWGRGTLVTVSSASTKGPSVFPLAPSSKSTSGGTAALGCLVEDYFPEPVTVSWNSGALTSGVHTFPAVLQSSGLYSLSSVVTVPSSSLGTQTYICNVNHKPSNTKVDEKVEPKSCDKTHTCPPCPAPEAAGGPSVFLFPPKPKDTLMISRTPEVTCVVVDVSHEDPEVKFNWYVDGVEVHNAKTKPREEQYNSTYRVVSVLTVLHQDWLNGKEYKCKVSNKALGAPIEKTISKAKGQPREPQVCTLPPSRDELTKNQVSLSCAVKGFYPSDIAVEWESNGQPENNYKTTPPVLDSDGSFFLVSKLTVDKSRWQQGNVFSCSVMHEALHNHYTQKSLSLSP
heavy 2: not shown
light 1: not shown
light 2: EVQLLESGGGLVQPGGSLRLSCAASGFTFSSYAMSWVRQAPGKGLEWVSAIIGSGASTYYADSVKGRFTISRDNSKNTLYLQMNSLRAEDTAVYYCAKGWFGGFNYWGQGTLVTVSSASVAAPSVFIFPPSDEQLKSGTASVVCLLNNFYPREAKVQWKVDNALQSGNSQESVTEQDSKDSTYSLSSTLTLSKADYEKHKVYACEVTHQGLSSPVTKSFNRGEC
notes: Bivalent for 4-1BB, monovalent for FAP (cross-Fab fused head to head); also called 4-1BB (20H.9)×FAP 2+1 H2H; anti-4-1BB (20H4.9)×anti-FAP (4B9) 2+1 H2H huIgG1 P329GLALA

EC50 of NFκB-luciferase activation curve, with MKN45-huPD-L1 cells [7]: 100 pM | binding result (human 4-1BB Fc(kih)): binds
B4: 1+1 4-1BB (20H4.9)/PD-L1 human IgG1 PGLALA (bispecific antibody)
heavy 1: B3 heavy 1
heavy 2: not shown
light 1: not shown
light 2: not shown
notes: Monovalent for 4-1BB and for PD-L1; also called 1+1 anti-4-1BB (20H4.9)×anti-PD-L1 huIgG1 P329GLALA; 1+1 H2H 4-1BB (20H4.9)/PD-L1 human IgG1 PGLALA

EC50 of NFκB-luciferase activation curve, with MKN45-huPD-L1 cells [7]: 40 pM
B5: 2+1 H2H 4-1BB (20H4.9)/PD-L1 human IgG1 PGLALA (bispecific antibody)
heavy 1: B3 heavy 1
heavy 2: not shown
light 1: not shown
light 2: not shown

EC50 of NFκB-luciferase activation curve, no CEA+ cells [8]: 90 pM | EC50 of NFκB-luciferase activation curve, with CHO-k1-cynoCEACAM5 clone 8 [8]: 100 pM | EC50 of NFκB-luciferase activation curve, with CHO-k1-humanCEACAM5 clone 11 [8]: 50 pM | EC50 of NFκB-luciferase activation curve, with CHO-k1-humanCEACAM5 clone 12 [8]: 40 pM | AUC of NFκB-luciferase activation curve, no CEA+ cells [9]: 1130 | AUC of NFκB-luciferase activation curve, with CHO-k1-cynoCEACAM5 clone 8 [9]: 26500 | AUC of NFκB-luciferase activation curve, with CHO-k1-humanCEACAM5 clone 11 [9]: 58100 | AUC of NFκB-luciferase activation curve, with CHO-k1-humanCEACAM5 clone 12 [9]: 56600 | AUC [10]: 614
B6: 2+1 H2H 4-1BB (20H4.9)/CEA (A5H1EL1D) huIgG1 P329GLALA (bispecific antibody)
heavy 1: B3 heavy 1
heavy 2: not shown
light 1: not shown
light 2: EVQLLESGGGLVQPGGSLRLSCAASGFTFTDYYMNWVRQAPGKGLEWLGFIGNKANAYTTEYSASVKGRFTISRDKSKNTLYLQMNSLRAEDTATYYCTRDRGLRFYFDYWGQGTTVTVSSASVAAPSVFIFPPSDEQLKSGTASVVCLLNNFYPREAKVQWKVDNALQSGNSQESVTEQDSKDSTYSLSSTLTLSKADYEKHKVYACEVTHQGLSSPVTKSFNRGEC
notes: also called 2+1 H2H anti-4-1BB (20H4.9)×anti-CEA (A5H1EL1D) huIgG1 P329GLALA

EC50 of NFκB-luciferase activation curve, no CEA+ cells [8]: 100 pM | EC50 of NFκB-luciferase activation curve, with CHO-k1-cynoCEACAM5 clone 8 [8]: 140 pM | EC50 of NFκB-luciferase activation curve, with CHO-k1-humanCEACAM5 clone 11 [8]: 20 pM | EC50 of NFκB-luciferase activation curve, with CHO-k1-humanCEACAM5 clone 12 [8]: 20 pM | AUC of NFκB-luciferase activation curve, no CEA+ cells [9]: 774 | AUC of NFκB-luciferase activation curve, with CHO-k1-cynoCEACAM5 clone 8 [9]: 802 | AUC of NFκB-luciferase activation curve, with CHO-k1-humanCEACAM5 clone 11 [9]: 76200 | AUC of NFκB-luciferase activation curve, with CHO-k1-humanCEACAM5 clone 12 [9]: 72300 | AUC [10]: 169
B7: 2+1 H2H 4-1BB (20H4.9)/CEA (MFE23) huIgG1 P329GLALA (bispecific antibody)
heavy 1: B3 heavy 1
heavy 2: not shown
light 1: not shown
light 2: QVKLQQSGAELVRSGTSVKLSCTASGFNIKDSYMHWLRQGPEQGLEWIGWIDPENGDTEYAPKFQGKATFTTDTSSNTAYLQLSSLTSEDTAVYYCNEGTPTGPYYFDYWGQGTTVTVSSASVAAPSVFIFPPSDEQLKSGTASVVCLLNNFYPREAKVQWKVDNALQSGNSQESVTEQDSKDSTYSLSSTLTLSKADYEKHKVYACEVTHQGLSSPVTKSFNRGEC
notes: also called 2+1 H2H anti-4-1BB (20H4.9)×anti-CEA (MFE23) huIgG1 P329GLALA
